The record followed here is US20250092124A1.

Assay [1] addresses GDF15-HIS (ACROBiosystems, CAT #: GD5-H5149) (human) (UniProt Q99988).
The target is the same in assay [2]. As to the kind of experiment: cell-based or functional assay.
Assay [3] shares this target. The assay can be described thus: ELISA, GDF15-HIS coated.
Assay [4] shares this target. As to the kind of experiment: BLI (ForteBio Octet), antibody immobilised, GDF15 200-6.25 nM. A general note: Biolayer interferometry detects binding as a change in optical thickness at a sensor tip.
The target in assay [5] is GDF15-mFC protein (human; mouse) (UniProt Q99988). The assay can be described thus: blocking ELISA as in Example 4, GFRAL-hIgG1 Fc coated (competitor), GDF15-mFC mixed with antibody.
Chain of GDF15-mFC protein (human; mouse) (Q99988 197-308): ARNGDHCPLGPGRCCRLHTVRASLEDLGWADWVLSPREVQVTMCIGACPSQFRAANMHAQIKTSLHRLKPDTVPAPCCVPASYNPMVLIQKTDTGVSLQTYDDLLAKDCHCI
Assay [6] has the same target. As to the kind of experiment: competitive ELISA, GFRAL-HIS coated (competitor), GDF15-mFc 0.3 µg/ml pre-incubated with antibody. On the technique in general: In an ELISA, binding on a coated surface is turned into a signal by an enzyme label.

Chain of GDF15-HIS (ACROBiosystems, CAT #: GD5-H5149) (human) (Q99988 197-308 limits assumed): as the sequence (Q99988 197-308) above

B1: Ponsegromab (antibody, INN chains, looked up, V domains shown)
VH: QVQLVQSGAEVKKPGSSVKVSCKASGYTFSSYNIDWVRQAPGQGLEWMGGINPIFGTAFYNQKFQGRVTITADESTSTAYMELSSLRSEDTAVYYCAREAITTVGAMDHWGQGTLVTVSS
VL: EIVLTQSPATLSLSPGERATLSCRTSQSVHNYLAWYQQKPGQAPRLLIYDASTRADGIPARFSGSGSGTDFTLTISSLEPEDFAVYYCQQFWSWPWTFGQGTKVEIK
As a reminder, the EC50 is the concentration needed to bring the measured effect to its halfway point. Low values mean higher potency in that assay, high ones lower potency in that assay. Usually Kd stands for the concentration at which binding is half-saturated. Lower therefore signals tighter binding. By koff is commonly meant the rate constant with which the complex falls apart. Read a low koff as a long-lived complex. For orientation: kon means the rate constant with which the complex forms. Usually IC50 stands for the concentration that inhibits the measured activity by half. A low value points to inhibition by little substance. In turn, B1 showed an EC50 (read off the curve) of GDF15-His for luciferase induction with 0.1 µg/ml antibody present in assay [1] of 0.01 µg/mL. In assay [2], this molecule had a Bottom (luciferase activity fold, fitted curve), HEK293 SRE-LUC2-cRET-GFRAL reporter cells of 1.07 and an IC50, luciferase in HEK293 SRE-LUC2-cRET-GFRAL reporter cells stimulated with GDF15-His 5 ng/ml of 0.0321 µg/mL. Besides, in assay [3], the concentration giving a half-maximal response (EC50) is 0.096 µg/mL and the OD450.Max is 1.1 OD450. In assay [4], this molecule yielded a dissociation constant (Kd) of less than 1 pM, a dissociation rate constant (koff) of less than 1e-07 s⁻¹ and a kon of 711000 M⁻¹ s⁻¹. In assay [5], the IC50 is 0.504 µg/mL and the OD450.Max worked out at 1.02 OD450. For the same molecule, in assay [6], the 50% inhibitory concentration (IC50) came to 0.504 µg/mL and the OD450.Max worked out at 1.02 OD450.
